# Measurements taken from patent US20200262913A1 (ZymoGenetics, published 2020).
# B1: humanized 292.12.3.1 construct clone 8 (12VH5-gly + fback) (antibody, human IgG4, V domains shown)
# VH: EVQLVQSGAEVKKPGESLKISCKASGYTLTRYWMQWVRQMPGKGLEWMGAIYPGDGDTRYSPSFQGQVTLTADKSISTAYLQWSSLKASDTAMYYCAFPDGYYAAPYGMDYWGQGTTVTVSS
# VL: DIQMTQSPSSLSASVGDRVTITCRASGNIHNYLAWYQQKPGKVPKLLIYNAKTLADGVPSRFSGSRSETQYSLTISSLQPEDVATYYCQHFWSTPWTFGQGTKVEIKR
# notes: also called 08
# B2: humanized 292.12.3.1 construct clone 24 (12VH5-gly + HC(fback) + LC(G66R, G68E, F71Y)) (antibody, human IgG4, V domains shown)
# VH: EVQLVQSGAEVKKPGESLKISCKASGYTLTRYWMQWVRQMPGKGLEWMGAIYPGDGDTRYSPSFQGQVTLTADKSISTAYLQWSSLKASDTAMYYCAFPDGYYAAPYGMDYWGQGTTVTVSS
# VL: DIQMTQSPSSLSASVGDRVTITCRASGNIHNYLAWYQQKPGKVPKLLIYNAKTLADGVPSRFSGSRSETDYTLTISSLQPEDVATYYCQHFWSTPWTFGQGTKVEIKR
# B3: humanized 292.12.3.1 construct clone 11 (12VH5-gly + HC(fback)) (antibody, human IgG4, V domains shown)
# VH: EVQLVQSGAEVKKPGESLKISCKASGYTLTRYWMQWVRQMPGKGLEWMGAIYPGDGDTRYSPSFQGQVTLTADKSISTAYLQWSSLKASDTAMYYCAFPDGYYAAPYGMDYWGQGTTVTVSS
# VL: DIQMTQSPSSLSASVGDRVTITCRASGNIHNYLAWYQQKPGKVPKLLIYNAKTLADGVPSRFSGSGSGTDFTLTISSLQPEDVATYYCQHFWSTPWTFGQGTKVEIKR
# B4: humanized 292.12.3.1 construct clone 21 (12VH5-gly + HC(G24A, S28T, F29L, R94F) + LC(fback)) (antibody, human IgG4, V domains shown)
# VH: EVQLVQSGAEVKKPGESLKISCKASGYTLTRYWMQWVRQMPGKGLEWMGAIYPGDGDTRYSPSFQGQVTISADKSISTAYLQWSSLKASDTAMYYCAFPDGYYAAPYGMDYWGQGTTVTVSS
# VL: DIQMTQSPSSLSASVGDRVTITCRASGNIHNYLAWYQQKPGKVPKLLIYNAKTLADGVPSRFSGSRSETQYSLTISSLQPEDVATYYCQHFWSTPWTFGQGTKVEIKR
# B5: humanized 292.12.3.1 construct clone 7 (12VH1-gly + fback) (antibody, human IgG4, V domains shown)
# VH: QVQLVQSGAEVKKPGASVKVSCKASGYTLTRYWMQWVRQAPGQGLEWMGAIYPGDGDTRYSQKFQGRVTLTADKSISTAYMELSSLRSEDTAVYYCAFPDGYYAAPYGMDYWGQGTLVTVSS
# VL: DIQMTQSPSSLSASVGDRVTITCRASGNIHNYLAWYQQKPGKVPKLLIYNAKTLADGVPSRFSGSRSETQYSLTISSLQPEDVATYYCQHFWSTPWTFGQGTKVEIKR
# notes: also called 07
# Experiments:
# [1] = biological target: T1, recombinant human IL-31 (hIL-31, BHK produced, A1277F, zcytor17lig CEE) (human, UniProt Q6EBC2 24-164); experiment: SPR (Biacore), mAb amine-coupled to CM5 chip, hIL-31 injected
# T1 construct: also called recombinant hIL-31
# T1 sequence: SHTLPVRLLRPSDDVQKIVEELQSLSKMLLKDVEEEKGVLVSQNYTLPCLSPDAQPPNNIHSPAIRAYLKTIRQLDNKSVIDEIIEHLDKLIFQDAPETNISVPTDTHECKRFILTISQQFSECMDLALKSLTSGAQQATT
# Description: The purified monoclonal antibodies were immobilized in individual flow cells on a CM5 type sensor chip. Immobilizations were performed using a standard amine coupling procedure, aiming for an immobilization level of 500 Resonance Units (RU). The antibodies were diluted to 1-5 ug/ml in 10 mM NaAc pH 4.5.
# HPS-EP pH 7.4 (10 mM HEPES, 150 mM NaCl, 3 mM EDTA and 0.005% Polysorbat P20) was used as running buffer, and diluents for the recombinant hIL-31 (hIL-31, BHK produced, A1277F, zcytor17lig CEE). The hIL-31 was tested in a 3-fold dilution series from 333.3 nM to 1.4 nM. Association (injection) was 4 min., followed by a 20 min. dissociation (wash) period. Flow rate was 50 ul/min. Experiments were performed at 25OC. Regeneration of the surface was accomplished by injection of 30 sec. pulse of 10 mM Glycin-HCl pH 1.8 or 1M formic acid, at a 30 ul/min flow rate. Detection in all flow cells simultaneously. Flow cell #1 contained no immobilized antibody, and was used for subtraction of background and bulk.
# The kinetic parameters were calculated by global fitting of the data using a 1:1 langmuir binding model. Data was inspected for mass-transport limitations prior to calculation of the kinetic parameters. In some experiments the Rmax was fitted locally, and the RI constant at 0.
# [2] = biological target: T2, recombinant human IL-31 (as used in the NHK STAT3 phosphorylation assay of Example 5) (human, UniProt Q6EBC2 24-164, limits assumed); experiment: cell-based or functional assay
# T2 sequence: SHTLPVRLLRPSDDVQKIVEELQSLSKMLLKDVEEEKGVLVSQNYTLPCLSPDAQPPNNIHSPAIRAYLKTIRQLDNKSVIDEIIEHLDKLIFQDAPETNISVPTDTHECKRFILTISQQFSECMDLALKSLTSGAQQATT
# [3] = biological target: recombinant human IL-31 (C108S), produced in E. coli by ZymoGenetics, MW 18 kDa (human), Q6EBC2; experiment: cell-based or functional assay
Binder,Kd [1] [nM],koff [1] [s⁻¹],kon [1] [M⁻¹ s⁻¹],"IC50, IL-31-induced STAT3 phosphorylation in NHK, Exp 4 [2] [nM]","IC50, IL-31-induced STAT3 phosphorylation in NHK, Exp 10 [2] [nM]","Average Fold loss in potency relative to 292.12.3.1, BAF-3(hIL-31R) proliferation assay [3] [fold]","Average Potency (IC50), inhibition of hIL-31-induced proliferation of BAF-3(hIL-31R) cells [3] [nM]","IC50, IL-31-induced STAT3 phosphorylation in NHK, Exp 6 [2] [nM]","IC50, IL-31-induced STAT3 phosphorylation in NHK, Exp 7 [2] [nM]","IC50, IL-31-induced STAT3 phosphorylation in NHK, Exp 8 [2] [nM]","IC50, IL-31-induced STAT3 phosphorylation in NHK, Exp 9 [2] [nM]"
B1,1.9,5.4e-05,28000,6.74,3.44,2.5,4.1,,,,
B2,,,,,,4,6,,,,
B3,1.46,7.6e-05,52000,,,11.6,22.8,,,,
B4,1.4,9.7e-05,69000,,,3.5,4.8,,,,
B5,1.9,5.7e-05,33000,7.8,8.82,3.3,4.5,3.99,7.74,5.44,7.58
